In patent US20260218138A1, “ENGINEERED ACYLTRANSFERASES HAVING ALTERED SUBSTRATE SPECIFICITY” (KEZBIOSOLUTIONS GMBH, priority 2022, published 2026) one finds Km and kcat data, which are given here for one molecule.

This series can be described thus: Enzyme-coupled assay: transfer of acyl-moieties from MMal-CoA to the ACP. To be noted: substrate MMal-CoA, acceptor ACP from murine FAS. In kind it is biochemical. On the procedure: An enzyme-coupled assay was performed to analyze the transfer of acyl-moieties from CoA to the ACP. Four solutions were prepared as 4× concentrated stocks in the assay buffer. Solution 1 contained the acyltransferase at the concentration range of 0.01 μM-10 μM, depending on the transfer kinetics to achieve good signal to noise ratios. Solution 2 contained the enzyme-coupled system including 8 mM α-ketoglutaric acid, 1.6 mM NAD+, 1.6 mM TPP and 60 mU/100 μL αKGDH. Solution 3 contained the methylmalonyl (MMal)-CoA at concentrations between 0.1 μM and 1,000 μM and solution 4 contained the ACP from murine FAS as a standalone protein at 240 μM. 5 μL of Solutions 1-3 were pipetted into a 384-well Small Volume HiBase Microplates (Greiner Bio-one) and mixed manually. The reactions were started by adding solution 4 with the dispenser system of the microplate reader (ClarioStar, BMG labtech). The reaction progress was recorded using the following settings: 348-20 nm; emission: 476-20 nm; gain: 1500; focal height: 11.9 mm; flashes: 17; orbital averaging: off.

A word on the Km: it is the concentration of substrate that gives half-maximal velocity. Broadly, the kcat is the number of substrate molecules converted per active site and unit of time at saturation.

B1: Mutant A04: engineered murine acyltransferase, mutations T161A F184A K186A R286A (protein)
chain: NKRPLWFICSGMGTQWRGMGLSLMRLDSFRESILRSDEAVKPLGVKVSDLLLSTDERTFDDIVHAFVSLTAIQIALIDLLTSVGLKPDGIIGHSLGEVACGYADGCLSQREAVLAAYWRGQCIKDAHLPPGSMAAVGLSWEECKQRCPAGVVPACHNSEDAVTISGPQAAVNEFVEQLKQEGVAAAEVRTGGLAFHSYFMEGIAPTLLQALKKVIREPRPRSARWLSTSIPEAQWQSSLARTSSAEYNVNNLVSPVLFQEALWHIPEHAVVLEIAPHALLQAVLKAGVKSSCTIIPLMKRDHKDNLEFFLTNLGKVHLT
In the case of B1, the Km was 7.24 µM and the kcat came out at 0.013 s⁻¹.
